# Measurements: patent US20090111753A1, “Nogo-A Polypeptide Fragments, Variant Nogo Receptor-1 Polypeptides, and Uses Thereof” (Yale University, priority 2004, published 2009)
# System: NgR ligands
# Test: Binding of alanine substituted NgR mutants to NgR ligands, summary categories
# Conditions: AP-Nogo66, AP-B4C, AP-B4C66, AP-Lingo-1, AP-OMgp and AP-MAG; compared to wild type NgR
# Text: To better define how multiple ligands bind to the NgR protein, we examined a series of Ala-substituted NgR for ligand binding activity. NgR mutagenesis was done using the Quick Change Multisite Directed Mutagenesis Kit (Stratagene catalog #200514). Human NgR1 was used as a template. Ala substitutions were generated for each of the charged residues predicted to be solvent accessible at the surface of the ligand binding domain of NgR (Barton, W. A., et al., Embo J. 22:3291-3302 (2003); He, X. L., et al., Neuron 38:177-185 (2003)). We generated mutants in which 1-8 surface residues localized within 5 A of one another were Ala-substituted. Because of the coiling nature of the LRR structure, as residues juxtaposed on the protein surface are commonly separated by approximately 25 residues in the primary structure. In addition to mutations in specific charged surface patches, other mutations were targeted to glycosylation sites and to regions predicted to be involved in ligand binding based on the NgR structure (Barton, W. A., et al., Embo J. 22:3291-3302 (2003); He, X. L., et al., Neuron 38:177-185 (2003)). In addition, a variant corresponding to a human polymorphism was examined (D259N). None of the mutations altered the Leu residues that define the LRR structure itself or the Cys residues critical in the amino and carboxyl terminal capping domains. The vast majority of such Ala surface substitution mutants were expressed as immunoreactive polypeptides with a molecular weight and an expression level indistinguishable from wild type NgR (FIG. 4C and data not shown).
# This collection of 74 individual NgR mutants was interrogated for AP-Nogo-66, AP-Amino-Nogo-B4C, AP-MAG, AP-OMgp, and AP-Lingo-1 binding. AP-Nogo66, AP-MAG, AP-OMGP and AP-Lingo-1 constructs are described elsewhere (Fournier, A. E., et al., Nature 409:341-346 (2001); Liu, B. P., et al., Science 297:1190-1193 (2002); Mi, S., et al., Nat. Neurosci. 7:221-228 (2004); Wang, K. C., et al., Nature 417:941-944 (2002b)). The properties of the NgR mutants fell into one of three major categories (Table II and FIG. 5). A number of Ala substituted NgR polypeptides bound all of the ligands at wild type levels. […] In addition, a significant extent of the concave surface is dispensable for ligand binding.
# Alanine substituted NgR mutants were tested for their binding to AP-Nogo66, AP-B4C, AP-B4C66, AP-Lingo-1, AP-OMgp and AP-MAG and they fall into three categories: (1) Mutants that lose binding to all NgR ligands. (2) Mutants that still maintain binding to all NgR ligands. […] The D259N mutant is an asparagine substitution to mimic a human polymorphism.
row,ligand binding category of NgR mutant (Table II),Molecule
1,No binding,"133, 136: human NgR1 mutant, listed residues mutated to alanine (protein) CPGACVCYNEPKVTTSCPQQGLQAVPVGIPAASQRIFLHGNRISHVPAASFRACRNLTILWLHSNVLARIDAAAFTGLALLEQLDLSDNAQLRSVDPATFHGLGRLATLALDRCGLQELGPGLFRGLAALQYLYLQDNALQALPDDTFRDLGNLTHLFLHGNRISSVPERAFRGLHSLDRLLLHQNRVAHVHPHAFRDLGRLMTLYLFANNLSALPTEALAPLRALQYLRLNDNPWVCDCRARPLWAWLQKFRGSSSEVPCSLPQRLAGRDLKRLAANDLQGCAVATGPYHPIWTGRATDEEPLGLPKCCQPDAADKASVLEPGRPASAGNALKGRVPPGDSPPGNGSGPRHINDSPFGTLPGSAEPPLTAVRPEGSEPPGFPTSGPRRRPGCSRKNRTRSHCRLGQAGSGGGGTGDSEGSGALPSLTCSLTPLGLALVLWTVLGPC"
2,No binding,"182, 186: human NgR1 mutant, listed residues mutated to alanine (protein) CPGACVCYNEPKVTTSCPQQGLQAVPVGIPAASQRIFLHGNRISHVPAASFRACRNLTILWLHSNVLARIDAAAFTGLALLEQLDLSDNAQLRSVDPATFHGLGRLHTLHLDRCGLQELGPGLFRGLAALQYLYLQDNALQALPDDTFRDLGNLTALFLAGNRISSVPERAFRGLHSLDRLLLHQNRVAHVHPHAFRDLGRLMTLYLFANNLSALPTEALAPLRALQYLRLNDNPWVCDCRARPLWAWLQKFRGSSSEVPCSLPQRLAGRDLKRLAANDLQGCAVATGPYHPIWTGRATDEEPLGLPKCCQPDAADKASVLEPGRPASAGNALKGRVPPGDSPPGNGSGPRHINDSPFGTLPGSAEPPLTAVRPEGSEPPGFPTSGPRRRPGCSRKNRTRSHCRLGQAGSGGGGTGDSEGSGALPSLTCSLTPLGLALVLWTVLGPC"
3,No binding,"82, 179: human NgR1 mutant, listed residues mutated to alanine (protein) CPGACVCYNEPKVTTSCPQQGLQAVPVGIPAASQRIFLHGNRISHVPAASFRACRALTILWLHSNVLARIDAAAFTGLALLEQLDLSDNAQLRSVDPATFHGLGRLHTLHLDRCGLQELGPGLFRGLAALQYLYLQDNALQALPDDTFRDLGALTHLFLHGNRISSVPERAFRGLHSLDRLLLHQNRVAHVHPHAFRDLGRLMTLYLFANNLSALPTEALAPLRALQYLRLNDNPWVCDCRARPLWAWLQKFRGSSSEVPCSLPQRLAGRDLKRLAANDLQGCAVATGPYHPIWTGRATDEEPLGLPKCCQPDAADKASVLEPGRPASAGNALKGRVPPGDSPPGNGSGPRHINDSPFGTLPGSAEPPLTAVRPEGSEPPGFPTSGPRRRPGCSRKNRTRSHCRLGQAGSGGGGTGDSEGSGALPSLTCSLTPLGLALVLWTVLGPC"
4,Binding to all ligands,"D259N: human NgR1 mutant, asparagine substitution to mimic a human polymorphism (protein) CPGACVCYNEPKVTTSCPQQGLQAVPVGIPAASQRIFLHGNRISHVPAASFRACRNLTILWLHSNVLARIDAAAFTGLALLEQLDLSDNAQLRSVDPATFHGLGRLHTLHLDRCGLQELGPGLFRGLAALQYLYLQDNALQALPDDTFRDLGNLTHLFLHGNRISSVPERAFRGLHSLDRLLLHQNRVAHVHPHAFRDLGRLMTLYLFANNLSALPTEALAPLRALQYLRLNNNPWVCDCRARPLWAWLQKFRGSSSEVPCSLPQRLAGRDLKRLAANDLQGCAVATGPYHPIWTGRATDEEPLGLPKCCQPDAADKASVLEPGRPASAGNALKGRVPPGDSPPGNGSGPRHINDSPFGTLPGSAEPPLTAVRPEGSEPPGFPTSGPRRRPGCSRKNRTRSHCRLGQAGSGGGGTGDSEGSGALPSLTCSLTPLGLALVLWTVLGPC"
5,No binding,"232, 234: human NgR1 mutant, listed residues mutated to alanine (protein) CPGACVCYNEPKVTTSCPQQGLQAVPVGIPAASQRIFLHGNRISHVPAASFRACRNLTILWLHSNVLARIDAAAFTGLALLEQLDLSDNAQLRSVDPATFHGLGRLHTLHLDRCGLQELGPGLFRGLAALQYLYLQDNALQALPDDTFRDLGNLTHLFLHGNRISSVPERAFRGLHSLDRLLLHQNRVAHVHPHAFRDLGRLMTLALAANNLSALPTEALAPLRALQYLRLNDNPWVCDCRARPLWAWLQKFRGSSSEVPCSLPQRLAGRDLKRLAANDLQGCAVATGPYHPIWTGRATDEEPLGLPKCCQPDAADKASVLEPGRPASAGNALKGRVPPGDSPPGNGSGPRHINDSPFGTLPGSAEPPLTAVRPEGSEPPGFPTSGPRRRPGCSRKNRTRSHCRLGQAGSGGGGTGDSEGSGALPSLTCSLTPLGLALVLWTVLGPC"
6,No binding,"158, 160: human NgR1 mutant, listed residues mutated to alanine (protein) CPGACVCYNEPKVTTSCPQQGLQAVPVGIPAASQRIFLHGNRISHVPAASFRACRNLTILWLHSNVLARIDAAAFTGLALLEQLDLSDNAQLRSVDPATFHGLGRLHTLHLDRCGLQELGPGLFRGLAALQALALQDNALQALPDDTFRDLGNLTHLFLHGNRISSVPERAFRGLHSLDRLLLHQNRVAHVHPHAFRDLGRLMTLYLFANNLSALPTEALAPLRALQYLRLNDNPWVCDCRARPLWAWLQKFRGSSSEVPCSLPQRLAGRDLKRLAANDLQGCAVATGPYHPIWTGRATDEEPLGLPKCCQPDAADKASVLEPGRPASAGNALKGRVPPGDSPPGNGSGPRHINDSPFGTLPGSAEPPLTAVRPEGSEPPGFPTSGPRRRPGCSRKNRTRSHCRLGQAGSGGGGTGDSEGSGALPSLTCSLTPLGLALVLWTVLGPC"
7,Binding to all ligands,"36, 38: human NgR1 mutant, listed residues mutated to alanine (protein) CPGACVCYNAPAVTTSCPQQGLQAVPVGIPAASQRIFLHGNRISHVPAASFRACRNLTILWLHSNVLARIDAAAFTGLALLEQLDLSDNAQLRSVDPATFHGLGRLHTLHLDRCGLQELGPGLFRGLAALQYLYLQDNALQALPDDTFRDLGNLTHLFLHGNRISSVPERAFRGLHSLDRLLLHQNRVAHVHPHAFRDLGRLMTLYLFANNLSALPTEALAPLRALQYLRLNDNPWVCDCRARPLWAWLQKFRGSSSEVPCSLPQRLAGRDLKRLAANDLQGCAVATGPYHPIWTGRATDEEPLGLPKCCQPDAADKASVLEPGRPASAGNALKGRVPPGDSPPGNGSGPRHINDSPFGTLPGSAEPPLTAVRPEGSEPPGFPTSGPRRRPGCSRKNRTRSHCRLGQAGSGGGGTGDSEGSGALPSLTCSLTPLGLALVLWTVLGPC"
8,Binding to all ligands,"63, 65: human NgR1 mutant, listed residues mutated to alanine (protein) CPGACVCYNEPKVTTSCPQQGLQAVPVGIPAASQRIALAGNRISHVPAASFRACRNLTILWLHSNVLARIDAAAFTGLALLEQLDLSDNAQLRSVDPATFHGLGRLHTLHLDRCGLQELGPGLFRGLAALQYLYLQDNALQALPDDTFRDLGNLTHLFLHGNRISSVPERAFRGLHSLDRLLLHQNRVAHVHPHAFRDLGRLMTLYLFANNLSALPTEALAPLRALQYLRLNDNPWVCDCRARPLWAWLQKFRGSSSEVPCSLPQRLAGRDLKRLAANDLQGCAVATGPYHPIWTGRATDEEPLGLPKCCQPDAADKASVLEPGRPASAGNALKGRVPPGDSPPGNGSGPRHINDSPFGTLPGSAEPPLTAVRPEGSEPPGFPTSGPRRRPGCSRKNRTRSHCRLGQAGSGGGGTGDSEGSGALPSLTCSLTPLGLALVLWTVLGPC"
